The values below come from patent US20200016266A1 (INIS BIOTECH, published 2020).

Numbering of substitutions follows the chain as printed. Read-outs that look alike come from different tables or passages of the source.

In test [1] the target is T1, TFDQANLTVKLPD
T1 construct: 13-mer of the Gal1 peptide array, axis label
T1 peptide: TFDQANLTVKLPD
Nature of the test: PEPperMAP conformational epitope mapping peptide array, fluorescence intensity [a.u.].

Test [2] concerns the target T2, LPDGYEFKFPNRL
T2 construct: 13-mer of the Gal1 peptide array, axis label
T2 peptide: LPDGYEFKFPNRL
The test is described as above.

Test [3] concerns the target T3, GLVASNL.
T3 construct: 7-mer of the Gal1 peptide array, axis label
T3 peptide: GLVASNL
The description is as above.

The target in test [4] is T4, PGECLRV.
T4 construct: 7-mer of the Gal1 peptide array, axis label
T4 peptide: PGECLRV
The description is as above.

For test [5], the target named is T5, NLGKDSN.
T5 construct: 7-mer of the Gal1 peptide array, axis label
T5 peptide: NLGKDSN
The test is described as above.

The target in test [6] is T6, QPGSVAEVCITFD
T6 construct: 13-mer of the Gal1 peptide array, axis label
T6 peptide: QPGSVAEVCITFD
Described as above.

Test [7] concerns the target T7, VAPDAKS.
T7 construct: 7-mer of the Gal1 peptide array, axis label
T7 peptide: VAPDAKS
The test is described as above.

Test [8] has as its target T8, Galectin-1 (human recombinant Gal1) (human, UniProt P09382 2-135, DyLight 594 label in the FRET assay only).
T8 construct: Recombinant Gal1 made in-house; also called rhGal1; 594-Gal1
Nature of the test: SPR, BIAEvaluation 3.0, 1:1 kinetic model. The protocol:
By using the BIAEvaluation 3.0 software in a kinetics model of interaction adjustment 1:1, kinetic parameters, constants of dissociation (Kd) and affinity (Ka) were calculated.

Test [9] deals with T1, TFDQANLTVKLPD
Nature of the test: PEPperMAP conformational epitope mapping peptide array, fluorescence intensity [a.u.].

The target in test [10] is T2, LPDGYEFKFPNRL
The test is described as above.

For test [11], the target named is T3, GLVASNL. Described as above.
The target in test [12] is T4, PGECLRV. The description is as above.
Test [13] concerns the target T5, NLGKDSN. Described as above.
In test [14] the target is T6, QPGSVAEVCITFD
The description is as above.

Test [15] deals with T7, VAPDAKS. The description is as above.

T8 sequence (P09382 2-135 limits assumed): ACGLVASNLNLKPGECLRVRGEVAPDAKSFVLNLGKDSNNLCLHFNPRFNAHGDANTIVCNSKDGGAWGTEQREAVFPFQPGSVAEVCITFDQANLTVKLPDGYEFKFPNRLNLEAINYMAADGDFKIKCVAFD

B1: anti-Gal1 Clone 21, fully human monoclonal antibody (antibody, V domains shown)
VH: EVQLLESGGGLVQPGGSLRLSCAASGFTFSSYAMSWVRQAPGKGLEWVSEIGRVGVNTLYADSVKGRFTISRDNSKNTLYLQMNSLRAEDTAVYYCAKKATQFDYWGQGTLVTVSS
VL: DIQMTQSPSSLSASVGDRVTITCRASQSISSYLNWYQQKPGKAPKLLIYRASRLQSGVPSRFSGSGSGTDFTLTISSLQPEDFATYYCQQTIGPPDTFGQGTKVEIKR
notes: also called MAb21; Human Ab 21
Consider B1, for which the binding result with TFDQANLTVKLPD [1], with LPDGYEFKFPNRL [2], in the test with GLVASNL [3], in the test with PGECLRV [4], with NLGKDSN [5] and with QPGSVAEVCITFD [6] was “no binding (tested: 10 µg/ml)” throughout. In the test with VAPDAKS [7], the binding result is given as “no binding (tested: 10 µg/ml)”. Moreover, the Ka in test [8] worked out at 649000 M⁻¹. In addition, in [8], the Kd was determined as 1540 nM.

B2: anti-Gal1 Clone 42, fully human monoclonal antibody (antibody, V domains shown)
VH: EVQLLESGGGLVQPGGSLRLSCAASGFTFSSYAMSWVRQAPGKGLEWVSGISGSGDYTSYADSVKGRFTISRDNSKNTLYLQMNSLRAEDTAVYYCAKGYGAFDYWGQGTLVTVSS
VL: B1 VL with R50G, R53W, T91S, I92A, G93N, P94Y, D96S
notes: also called MAb42; Human Ab 42
For the molecule B2, the binding result with TFDQANLTVKLPD [9], with LPDGYEFKFPNRL [10], with GLVASNL [11], in the test with PGECLRV [12], with NLGKDSN [13] and in the test with QPGSVAEVCITFD [14] was “no binding (tested: 10 µg/ml)” each time. The binding result with VAPDAKS [15] was “no binding (tested: 10 µg/ml)”. Further, in test [8], the Ka amounted to 7.63e+06 M⁻¹. Also, in test [8], the Kd came out at 131 nM.
